Laboratory results published in US20230374078A1.

Target: variant of repaired and stabilized Du422 construct (HIV161818) with the additional K655I substitution (HIV-1 clade C strain Du422)
Assay: assay not named in the sentence (data not shown); trimer yield by AlphaLISA elsewhere

Substance: mAb PGT145 (antibody)
- trimer yield (PGT145 AlphaLISA signal), factor over the variant of SEQ ID NO: 25 without K655I: 1.3 fold
